Measured values from publication doi:10.1101/2024.04.23.590744 (bioRxiv, 2024).
Substitutions are numbered along the chain they refer to. Numbers in names are those of the source. Where two headings read alike, the source gives them in different places.

B1: human LETM1 F-EF-hand domain, residues 643-699, wild type (domain or fragment, UniProt O95202-1 643-699, looked up)
chain: TGENVISVAELINAMKQVKHIPESKLTSLAAALDENKDGKVNIDDLVKVIELVDKED
B2: human LETM1 F-EF-hand domain, residues 643-699, D676A/N678A (domain or fragment, UniProt O95202-1 643-699, looked up)
chain: B1 chain with D34A, N36A
B3: human LETM1 F-EF-hand domain, residues 643-699, D687E (domain or fragment, UniProt O95202-1 643-699, looked up)
chain: B1 chain with D45E
B4: human LETM1 F-EF-hand domain, residues 643-699, D686A/D687A (domain or fragment, UniProt O95202-1 643-699, looked up)
chain: B1 chain with D44A, D45A

Key:
Test in all cases: SEC-MALS
[1] = molecular target: human LETM1 F-EF-hand domain, residues 643-699, D676K/N678K (human) (UniProt O95202)
[2] = molecular target: human LETM1 F-EF-hand domain, residues 643-699, D676K/N678K (human) (UniProt O95202); remark: listed apart in the source
SEC-MALS [3] = molecular target: the molecule itself
SEC-MALS [4] = molecular target: the molecule itself; remark: listed apart in the source

Molecule	stoichiometry N (SEC-MALS [3])	stoichiometry N (SEC-MALS [4])	further results
human LETM1 F-EF-hand domain, residues 643-699, D676K/N678K (from UniProt O95202-1 643-699) (domain or fragment)			stoichiometry N [1]: 2; stoichiometry N [2]: 2
B1	~2		
B2		2	
B3	2		
B4		2	
